From publication PMC5482573 (eLife, 2017) come the findings set out here.

The chains are these.
B1: R. norvegicus ArfGAP2, full-length, N-terminally His-tagged (enzyme)
chain: not shown
notes: PDB 2P57 was fitted for it; source: insect cells, purified (Ni-NTA, gel filtration)
B2: β-COP (M. musculus, in recombinant coatomer) (natural protein)
chain: MTAAENVCYTLINVPMDSEPPSEISLKNDLEKGDVKSKTEALKKVIIMILNGEKLPGLLMTIIRFVLPLQDHTIKKLLLVFWEIVPKTTPDGRLLHEMILVCDAYRKDLQHPNEFIRGSTLRFLCKLKEAELLEPLMPAIRACLEHRHSYVRRNAVLAIYTIYRNFEHLIPDAPELIHDFLVNEKDASCKRNAFMMLIHADQDRALDYLSTCIDQVQTFGDILQLVIVELIYKVCHANPSERARFIRCIYNLLQSSSPAVKYEAAGTLVTLSSAPTAIKAAAQCYIDLIIKESDNNVKLIVLDRLVELKEHPAHERVLQDLVMDILRVLSTPDLEVRKKTLQLALDLVSSRNVEELVIVLKKEVIKTNNVSEHEDTDKYRQLLVRTLHSCSVRFPDMAANVIPVLMEFLSDSNEAAAADVLEFVREAIQRFDNLRMLIVEKMLEVFHAIKSVKIYRGALWILGEYCSTKEDIQSVMTEVRRSLGEIPIVESEIKKEAGELKPEEEITVGPVQKLVTEMGTYATQSALSSSRPTKKEEDRPPLRGFLLDGDFFVAASLATTLTKIALRYVALVQEKKKQNSFVAEAMLLMATILHLGKSSLPKKPITDDDVDRISLCLKVLSECSPLMNDIFNKECRQSLSQMLSAKLEEEKLSQKKESEKRNVTVQPDDPISFMQLTAKNEMNCKEDQFQLSLLAAMGNTQRKEAADPLASKLNKVTQLTGFSDPVYAEAYVHVNQYDIVLDVLVVNQTSDTLQNCTLELATLGDLKLVEKPSPLTLAPHDFANIKANVKVASTENGIIFGNIVYDVSGAASDRNCVVLSDIHIDIMDYIQPATCTDAEFRQMWAEFEWENKVTVNTNMTDLNDYLQHILKSTNMKCLTPEKALSGYCGFMAANLYARSIFGEDALANVSIEKPVHQGPDAAVTGHIRIRAKSQGMALSLGDKINLSQKKTSL
notes: beta-COP, coatomer subunit beta, M. musculus. numbers count on: the construct with its N-terminal His-tag, shifted by 15 residues relative to Q9JIF7; Stood in the assays as a subunit of the whole heptameric coatomer; The coatomer of the photo-cross-linking is called only 'coatomer'; source: SF9 insect cells (baculovirus), as part of recombinant coatomer, purified
B4: β’-COP (M. musculus, in recombinant coatomer) (natural protein)
chain: MPLRLDIKRKLTARSDRVKSVDLHPTEPWMLASLYNGSVCVWNHETQTLVKTFEVCDLPVRAAKFVARKNWVVTGADDMQIRVFNYNTLERVHMFEAHSDYIRCIAVHPTQPFILTSSDDMLIKLWDWDKKWSCSQVFEGHTHYVMQIVINPKDNNQFASASLDRTIKVWQLGSSSPNFTLEGHEKGVNCIDYYSGGDKPYLISGADDRLVKIWDYQNKTCVQTLEGHAQNVSCASFHPELPIIITGSEDGTVRIWHSSTYRLESTLNYGMERVWCVASLRGSNNVALGYDEGSIIVKLGREEPAMSMDANGKIIWAKHSEVQQANLKAMGDTEIKDGERLPLAVKDMGSCEIYPQTIQHNPNGRFVVVCGDGEYIIYTAMALRNKSFGSAQEFAWAHDSSEYAIRESNSIVKIFKNFKEKKSFKPDFGAESIYGGFLLGVRSVNGLAFYDWENTELIRRIEIQPKHIFWSDSGELVCIATEESFFILKYLSEKVLAAQETHEGVTEDGIEDAFEVLGEIQEIVKTGLWVGDCFIYTSSVNRLNYYVGGEIVTIAHLDRTMYLLGYIPKDNRLYLGDKELNIVSYSLLVSVLEYQTAVMRRDFSMADKVLPTIPKEQRTRVAHFLEKQGFKQQALTVSTDPEHRFELALQLGELKIAYQLAVEAESEQKWKQLAELAISKCQFSLAQECLHHAQDYGGLLLLATASGNASMVNKLAEGAERDGKNNVAFMSYFLQGKLDACLELLIRTGRLPEAAFLARTYLPSQVSRVVKLWRENLSKVNQKAAESLADPTEYENLFPGLKEAFVVEEWVKETHADLWPAKQYPLVTPNEERNVMEEAKGFQPSRPTAQQEPDGKPASSPVIMASQTTHKEEKSLLELEVDLDNLELEDIDTTDINLDEDILDD
notes: beta'-COP, coatomer subunit beta', M. musculus; Stood in the assays as a subunit of the whole heptameric coatomer; source: SF9 insect cells (baculovirus), as part of recombinant coatomer, purified

What all share (conditions): both partners purified
The target of test [1] is B2. Briefly: cryo-EM structure; COPI coated vesicles with GTPγS incubated 15–20 min with a 10 molar excess of ArfGAP2; subtomogram averaging, difference map and classification; class with ArfGAP2 at 10.1 Å.
For test [2], the target named is B4. The test is described as above.
Test [3] concerns the target T1, α-COP (M. musculus, in recombinant coatomer) (M. musculus, UniProt Q8CIE6 1-1224).
T1 construct: alpha-COP, coatomer subunit alpha, M. musculus; Stood in the assays as a subunit of the whole heptameric coatomer; source: SF9 insect cells (baculovirus), as part of recombinant coatomer, purified
T1 sequence: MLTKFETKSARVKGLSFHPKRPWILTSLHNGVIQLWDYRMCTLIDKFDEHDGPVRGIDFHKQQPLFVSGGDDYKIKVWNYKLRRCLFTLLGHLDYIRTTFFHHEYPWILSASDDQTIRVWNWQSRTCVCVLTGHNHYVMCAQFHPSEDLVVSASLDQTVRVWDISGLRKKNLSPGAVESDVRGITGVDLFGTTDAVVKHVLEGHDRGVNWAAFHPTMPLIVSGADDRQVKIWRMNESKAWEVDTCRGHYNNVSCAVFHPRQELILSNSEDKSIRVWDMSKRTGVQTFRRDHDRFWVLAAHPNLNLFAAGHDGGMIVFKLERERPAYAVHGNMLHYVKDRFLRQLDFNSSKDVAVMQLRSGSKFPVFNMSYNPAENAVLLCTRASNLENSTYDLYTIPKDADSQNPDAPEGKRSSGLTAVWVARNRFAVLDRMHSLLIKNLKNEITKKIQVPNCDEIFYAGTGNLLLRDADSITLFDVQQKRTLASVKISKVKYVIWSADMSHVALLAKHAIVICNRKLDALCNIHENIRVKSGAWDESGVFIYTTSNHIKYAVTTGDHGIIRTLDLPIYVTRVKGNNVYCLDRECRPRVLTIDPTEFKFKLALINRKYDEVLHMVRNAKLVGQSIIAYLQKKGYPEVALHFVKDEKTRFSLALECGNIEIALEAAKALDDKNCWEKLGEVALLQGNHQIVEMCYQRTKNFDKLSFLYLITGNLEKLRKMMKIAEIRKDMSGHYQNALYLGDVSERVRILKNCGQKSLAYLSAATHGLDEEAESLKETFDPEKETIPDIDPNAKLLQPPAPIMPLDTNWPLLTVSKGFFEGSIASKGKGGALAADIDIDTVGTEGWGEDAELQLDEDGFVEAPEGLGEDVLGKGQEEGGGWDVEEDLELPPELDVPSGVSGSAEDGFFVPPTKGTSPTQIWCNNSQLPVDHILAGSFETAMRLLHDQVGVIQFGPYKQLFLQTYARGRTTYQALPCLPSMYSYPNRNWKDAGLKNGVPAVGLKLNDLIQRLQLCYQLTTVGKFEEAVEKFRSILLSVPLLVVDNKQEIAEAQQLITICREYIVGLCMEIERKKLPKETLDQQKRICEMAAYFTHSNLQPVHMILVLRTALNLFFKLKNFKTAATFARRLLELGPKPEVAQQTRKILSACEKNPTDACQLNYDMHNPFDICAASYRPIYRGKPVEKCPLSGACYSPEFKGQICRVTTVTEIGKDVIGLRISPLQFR
Put plainly: cryo-EM structure; cryo-electron tomography and subtomogram averaging of the COPI leaf, 9.2 Å; coat assembled in vitro from coatomer (840 nM), Arf1 (2 μM), GTPγS, ARNO and GUVs, 37°C, 50 mM HEPES pH 7.4, 50 mM KOAc, 1 mM MgCl2.

Test [4] addresses B1. Put plainly: cryo-EM structure; COPI coated vesicles with GTPγS incubated 15–20 min with a 10 molar excess of ArfGAP2; subtomogram averaging, difference map and classification; class with ArfGAP2 at 10.1 Å.
Test [5] deals with B2. Briefly: cryo-EM structure; cryo-electron tomography and subtomogram averaging of the COPI leaf, 9.2 Å; coat assembled in vitro from coatomer (840 nM), Arf1 (2 μM), GTPγS, ARNO and GUVs, 37°C, 50 mM HEPES pH 7.4, 50 mM KOAc, 1 mM MgCl2.

B1: the binding result in test [1] and in test [2] was “binds” in each case.
Take B2: the binding result in test [3] is listed as “binds”.

B3: S. cerevisiae myristoylated Arf1 (natural protein)
chain: MGLFASKLFSNLFGNKEMRILMVGLDGAGKTTVLYKLKLGEVITTIPTIGFNVETVQYKNISFTVWDVGGQDRIRSLWRHYYRNTEGVIFVVDSNDRSRIGEAREVMQRMLNEDELRNAAWLVFANKQDLPEAMSAAEITEKLGLHSIRNRPWFIQATCATSGEGLYEGLEWLSNSLKNST
modifications: myristoylated
notes: Arf1 (ADP-ribosylation factor 1), S. cerevisiae, loaded with GTPγS on membranes; also called γArf1 (central); βArf1 (peripheral); source: E. coli, purified
Consider B3, for which the binding result in test [4] and in test [5] was “binds” throughout.
On to B4, for which the binding result in test [5] and in test [3] was “binds” in each case.
